Source: patent US20230002493A1 (ORIONIS BIOSCIENCES, published 2023)
Residue numbers refer to the chain shown, from its start. Names may count otherwise. Blank lines part the entries; values can stand above or below the binder they belong to.

What was measured:
[1] = target: T1, recombinant PD-L1 extracellular domain fused to the mouse IgG1 Fc domain (SinoBiologicals) (human; mouse, UniProt Q9NZQ7 19-238); test: BLI (Octet Red 96); ratio of the printed KDs, variant over 2LIG189
T1 construct: extracellular domain; also called human PD-L1-mouse Fc; PD-L1-mouse Fc protein; not shown: mouse IgG1 Fc domain
T1 sequence (Q9NZQ7 19-238): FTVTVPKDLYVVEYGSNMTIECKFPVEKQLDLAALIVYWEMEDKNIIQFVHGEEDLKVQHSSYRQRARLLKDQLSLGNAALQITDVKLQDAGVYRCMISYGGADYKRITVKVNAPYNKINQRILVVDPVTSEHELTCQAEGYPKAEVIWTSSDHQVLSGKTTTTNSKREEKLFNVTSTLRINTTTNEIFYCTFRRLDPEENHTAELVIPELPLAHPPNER
Protocol: (§1) Affinities of resulting variants were measured using the bio-layer interferometry technology on an Octet Red 96 instrument (ForteBio). In brief, recombinant PD-L1 extracellular domain fused to the mouse IgG1 Fc domain (SinoBiologicals) was immobilized on anti-murine IgG quantitation (AMQ) biosensors (ForteBio). Loaded sensors were incubated with a serial dilution of PD-L1 VHH variant, association and dissociation monitored and kinetic parameters were calculated using the Octet Data Analysis software v10 (ForteBio).
(§2) The aspartic acid at position 1 was included to avoid the risk of pyroglutamate formation. […] Resulting mutants were purified and affinities measured as described in Example 1.

[2] = target: T1, recombinant PD-L1 extracellular domain …; test: BLI (Octet Red 96), PD-L1-mouse IgG1 Fc on AMQ biosensors, VHH dilution series
Protocol: as §1, §2

[3] = target: T1, recombinant PD-L1 extracellular domain …; test: BLI (Octet), recombinant PD-L1-mouse Fc on the sensor, VHH dilution series
Protocol: as §1
The isomerization motif in all these variants was removed by the D54G mutation. Variants were produced as described above and affinity measured on an Octet instrument using the recombinant PD-L1-mouse Fc protein.

[4] = target: T1, recombinant PD-L1 extracellular domain …; test: BLI (Octet Red 96), PD-L1-mouse IgG1 Fc on AMQ biosensors, VHH dilution series; remark: listed apart in the source
Protocol: as §1

Ratio KD [1]: 52.1 | Kd [2]: 41.2 nM | koff [2]: 0.00883 s⁻¹ | kon [2]: 214000 M⁻¹ s⁻¹
B1: 2LIG189_D33E (VHH)
VHH: QVQLQESGGGLVQAGGSLRLSCAASGKIFSGNEMGWYRQAPGKQRELVGIITSGGITDYADAVKGRFTISRDNAKNMMYLQMNSLKPEDTAVYYCNMRDRTIWWGQGTQVTVSS

Ratio KD [1]: 3.82 | Kd [2]: 3.02 nM | koff [2]: 0.0009 s⁻¹ | kon [2]: 298000 M⁻¹ s⁻¹
B2: 2LIG189_N32V (VHH)
VHH: B1 VHH with N32V, E33D

Ratio KD [1]: 1.9 | Kd [2]: 1.51 nM | koff [2]: 0.000208 s⁻¹ | kon [2]: 138000 M⁻¹ s⁻¹
B3: 2LIG189_M97F (VHH)
VHH: B1 VHH with E33D, M97F

Ratio KD [1]: 6.09 | Kd [2]: 4.82 nM | koff [2]: 0.00146 s⁻¹ | kon [2]: 303000 M⁻¹ s⁻¹
B4: 2LIG189_M97Y (VHH)
VHH: B1 VHH with E33D, M97Y

Ratio KD [1]: 3.41 | Kd [2]: 2.7 nM | koff [2]: 0.000733 s⁻¹ | kon [2]: 272000 M⁻¹ s⁻¹
B5: 2LIG189_N32A (VHH)
VHH: B1 VHH with N32A, E33D

Ratio KD [1]: 1.62 | Kd [2]: 1.28 nM | koff [2]: 0.000299 s⁻¹ | kon [2]: 234000 M⁻¹ s⁻¹
B6: 2LIG189_OPT2 (VHH)
VHH: B1 VHH with Q1D, Q5V, A14P, E33D, A74S, M77T, K86R, Q109L

Ratio KD [1]: 0.68 | Kd [2]: 0.542 nM | koff [2]: 9.85e-05 s⁻¹ | kon [2]: 182000 M⁻¹ s⁻¹
B7: 2LIG189_N32E (VHH)
VHH: B1 VHH with N32E, E33D

Ratio KD [1]: 20.7 | Kd [2]: 16.4 nM | koff [2]: 0.0342 s⁻¹ | kon [2]: 2.08e+06 M⁻¹ s⁻¹
B8: 2LIG189_D33L (VHH)
VHH: B1 VHH with E33L

binding result [2]: no binding
B9: 2LIG189_D33V (VHH)
VHH: B1 VHH with E33V

binding result [2]: no binding
B10: 2LIG189_M97Q (VHH)
VHH: B1 VHH with E33D, M97Q

Ratio KD [1]: 2.04 | Kd [2]: 1.62 nM | koff [2]: 0.000195 s⁻¹ | kon [2]: 121000 M⁻¹ s⁻¹
B11: 2LIG189_N32L (VHH)
VHH: B1 VHH with N32L, E33D

binding result [2]: no binding
B12: 2LIG189_M97H (VHH)
VHH: B1 VHH with E33D, M97H

Ratio KD [1]: 8.75 | Kd [2]: 6.92 nM | koff [2]: 0.000497 s⁻¹ | kon [2]: 71800 M⁻¹ s⁻¹
B13: 2LIG189_OPT1 (VHH)
VHH: B1 VHH with Q1D, Q5V, A14P, E33D, A74S, K86R, Q109L

Ratio KD [1]: 6.18 | Kd [2]: 4.89 nM | koff [2]: 0.000942 s⁻¹ | kon [2]: 193000 M⁻¹ s⁻¹
B14: 2LIG189_OPT3 (VHH)
VHH: B1 VHH with Q1D, Q5V, A14P, E33D, A74S, M78V, K86R, Q109L

binding result [2]: no binding
B15: 2LIG189_M97E (VHH)
VHH: B1 VHH with E33D, M97E

Ratio KD [1]: 2.19 | Kd [2]: 1.74 nM | koff [2]: 0.000301 s⁻¹ | kon [2]: 174000 M⁻¹ s⁻¹
B16: 2LIG189_OPT4 (VHH)
VHH: B1 VHH with Q1D, Q5V, A14P, E33D, A74S, M77T, M78V, K86R, Q109L

Ratio KD [1]: 7.97 | Kd [2]: 6.31 nM | koff [2]: 0.00104 s⁻¹ | kon [2]: 164000 M⁻¹ s⁻¹
B17: 2LIG189_N32T (VHH)
VHH: B1 VHH with N32T, E33D

binding result [2]: no binding
B18: 2LIG189_D33R (VHH)
VHH: B1 VHH with E33R

Ratio KD [1]: 2.82 | Kd [2]: 2.23 nM | koff [2]: 0.00835 s⁻¹ | kon [2]: 3.75e+06 M⁻¹ s⁻¹
B19: 2LIG189_D33Y (VHH)
VHH: B1 VHH with E33Y

Ratio KD [1]: 0.7 | Kd [2]: 0.55 nM | koff [2]: 0.000176 s⁻¹ | kon [2]: 320000 M⁻¹ s⁻¹
B20: 2LIG189_N32F (VHH)
VHH: B1 VHH with N32F, E33D

Ratio KD [1]: 24 | Kd [2]: 19 nM | koff [2]: 0.00228 s⁻¹ | kon [2]: 120000 M⁻¹ s⁻¹
B21: 2LIG189_N32G (VHH)
VHH: B1 VHH with N32G, E33D

binding result [2]: no binding
B22: 2LIG189_M97R (VHH)
VHH: B1 VHH with E33D, M97R

Ratio KD [1]: 2.58 | Kd [2]: 2.04 nM | koff [2]: 0.000629 s⁻¹ | kon [2]: 308000 M⁻¹ s⁻¹
B23: 2LIG189_N32Y (VHH)
VHH: B1 VHH with N32Y, E33D

binding result [2]: no binding
B24: 2LIG189_D33I (VHH)
VHH: B1 VHH with E33I

Ratio KD [1]: 31.6 | Kd [2]: 25 nM | koff [2]: 0.0118 s⁻¹ | kon [2]: 474000 M⁻¹ s⁻¹
B25: 2LIG189_D33Q (VHH)
VHH: B1 VHH with E33Q

Ratio KD [1]: 12.4 | Kd [2]: 9.78 nM | koff [2]: 0.0107 s⁻¹ | kon [2]: 1.09e+06 M⁻¹ s⁻¹
B26: 2LIG189_D33F (VHH)
VHH: B1 VHH with E33F

Ratio KD [1]: 8.23 | Kd [2]: 6.51 nM | koff [2]: 0.000872 s⁻¹ | kon [2]: 134000 M⁻¹ s⁻¹
B27: 2LIG189_N32I (VHH)
VHH: B1 VHH with N32I, E33D

Ratio KD [1]: 2.27 | Kd [2]: 1.8 nM | koff [2]: 0.000292 s⁻¹ | kon [2]: 163000 M⁻¹ s⁻¹
B28: 2LIG189_N32S (VHH)
VHH: B1 VHH with N32S, E33D

Ratio KD [1]: 2.28 | Kd [2]: 1.81 nM | koff [2]: 0.000446 s⁻¹ | kon [2]: 247000 M⁻¹ s⁻¹
B29: 2LIG189_N32H (VHH)
VHH: B1 VHH with N32H, E33D

Kd [3]: 0.719 nM | koff [3]: 0.000721 s⁻¹ | kon [3]: 1e+06 M⁻¹ s⁻¹ | Kd [4]: 0.282 nM | koff [4]: 0.000447 s⁻¹ | kon [4]: 1.58e+06 M⁻¹ s⁻¹
B30: 2LIG99 VHH (VHH)
VHH: QVQLQESGGGLVQAGGSLRLSCTASGTIFSINRMDWFRQAPGKQRELVALITSDGTPAYADSAKGRFTISRDNTKKTVSLQMNSLKPEDTAVYYCHVSSGVYNYWGQGTQVTVSS
notes: Parental PD-L1 VHH; stands here as the molecule on which the mutations are counted; also called wild-type 2LIG99; not shown: C-terminal His-tag

Kd [3]: 0.602 nM | koff [3]: 0.00112 s⁻¹ | kon [3]: 1.87e+06 M⁻¹ s⁻¹
B31: P-2053: 2LIG99_OPT_D54G_A63V_K76N (Q1D_Q5V_A14P_D54G_A63V_T74S_K76N_K86R_Q110L) (VHH)
VHH: B30 VHH with Q1D, Q5V, A14P, D54G, A63V, T74S, K76N, K86R, Q110L
notes: not shown: C-terminal His-tag ('produced as described above')

Kd [3]: 0.553 nM | koff [3]: 0.000856 s⁻¹ | kon [3]: 1.55e+06 M⁻¹ s⁻¹
B32: 2LIG99_OPT_D54G (VHH)
VHH: B30 VHH with Q1D, Q5V, A14P, D54G, T74S, K86R, Q110L

Kd [3]: 1.16 nM | koff [3]: 0.00151 s⁻¹ | kon [3]: 1.3e+06 M⁻¹ s⁻¹
B33: 2LIG99_OPT_D54G_A63V (VHH)
VHH: B30 VHH with Q1D, Q5V, A14P, D54G, A63V, T74S, K86R, Q110L

Kd [3]: 0.358 nM | koff [3]: 0.000599 s⁻¹ | kon [3]: 1.67e+06 M⁻¹ s⁻¹
B34: P-2051: 2LIG99_OPT_D54G_K76N (Q1D_Q5V_A14P_D54G_T74S_K76N_K86R_Q110L) (VHH)
VHH: B30 VHH with Q1D, Q5V, A14P, D54G, T74S, K76N, K86R, Q110L
notes: as for B31

Kd [3]: 0.735 nM | koff [3]: 0.000677 s⁻¹ | kon [3]: 921000 M⁻¹ s⁻¹
B35: P-2056: 2LIG99_OPT_D54G_A63V_K76N_S79Y (Q1D_Q5V_A14P_D54G_A63V_T74S_K76N_K86R_S79Y_Q110L) (VHH)
VHH: B30 VHH with Q1D, Q5V, A14P, D54G, A63V, T74S, K76N, S79Y, K86R, Q110L
notes: as for B31

Kd [3]: 0.182 nM | koff [3]: 0.000279 s⁻¹ | kon [3]: 1.54e+06 M⁻¹ s⁻¹
B36: P-2052: 2LIG99_OPT_D54G_S79Y (Q1D_Q5V_A14P_D54G_T74S_S79Y_K86R_Q110L) (VHH)
VHH: B30 VHH with Q1D, Q5V, A14P, D54G, T74S, S79Y, K86R, Q110L
notes: as for B31

Kd [3]: 0.427 nM | koff [3]: 0.000779 s⁻¹ | kon [3]: 1.83e+06 M⁻¹ s⁻¹
B37: P-2054: 2LIG99_OPT_D54G_A63V_S79Y (Q1D_Q5V_A14P_D54G_A63V_T74S_K86R_S97Y_Q110L) (VHH)
VHH: B30 VHH with Q1D, Q5V, A14P, D54G, A63V, T74S, S79Y, K86R, Q110L
notes: The mutation list prints S97Y where the name prints S79Y; not shown: C-terminal His-tag ('produced as described above')

Kd [3]: 0.0445 nM | koff [3]: 5.52e-05 s⁻¹ | kon [3]: 1.24e+06 M⁻¹ s⁻¹
B38: P-2055: 2LIG99_OPT_D54G_K76N_S79Y (Q1D_Q5V_A14P_D54G_T74S_K76N_K86R_S79Y_Q110L) (VHH)
VHH: B30 VHH with Q1D, Q5V, A14P, D54G, T74S, K76N, S79Y, K86R, Q110L
notes: as for B31
